Assay results reported in the RNAGym collection of RNA variant scans (doi:10.1093/nar/gkz1192).

B1: CPEB3 Ribozyme (parent)
chain: UAACAGGGGGCCACAGCAGAAGCGUUCACGUCGCAGCCCCUGUCAGAUUCUGGUGAAUCUGCGAAUUCUGCUGUAUAUCUC

Variants of: B1
Assay: self-cleavage, relative activity (ratio to wild type); higher = more cleavage; in vitro, sequencing
Outline: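 Relative activity compares each variant's cleaved/total read fraction with that of the unmutated ribozyme. To get these fractions, barcoded CPEB3 ribozyme libraries from rounds of error-prone PCR were transcribed with T7 RNA polymerase for 5 hours at 37°C and then given 15 min of DNase I treatment before EDTA was added. The RNAs were reverse transcribed with template switching and sequenced on Illumina, and DNA sequencing linked barcodes to variants. A minimum of 5 reads applied, and three batches were averaged.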

Variant | self-cleavage
UAACAGGGGGCCACAGCAGAAGCGUUCAAGUCGCAGCCCCUGUCAGAUUCUGGUGAAUCAGCGAAUUCUGCUGUAUAUCUC | 0.11
UAACAGGGGGCCACAGCAGAAGCGUUCAAGUCGCAGCCCCUGUCAGAUUCUGGUGAAUCCGCGAAUUCUGCUGUAUAUCUC | 0.2
UAACAGGGGGCCACAGCAGAAGCGUUCUCGUCGCAGCCCCUGUCAGAUUCUGGUGAAACUGCGAAUUCUGCUGUAUAUCUC | 0.26
UAACAGGGGGCCACAGCAGAAGCGUUCUCGUCGCAGCCCCUGUCAGAUUCUGGUGAAGCUGCGAAUUCUGCUGUAUAUCUC | 0.2
UAACAGGGGGCCACAGCAGAAGCGUUCUCGUCGCAGCCCCUGUCAGAUUCUGGUGAACCUGCGAAUUCUGCUGUAUAUCUC | 0.39
UAACAGGGGGCCACAGCAGAAGCGUUCAAGUCGCAGCCCCUGUCAGAUUCUGGUGAAUCUGCGAGUUCUGCUGUAUAUCUC | 0.26
UAACAGGGGGCCACAGCAGAAGCGUUCAAGUCGCAGCCCCUGUCAGAUUCUGGUGAAUCUGCGAUUUCUGCUGUAUAUCUC | 0.14
UAACAGGGGGCCACAGCAGAAGCGUUCAAGUCGCAGCCCCUGUCAGAUUCUGGUGAAUCUGCGGAUUCUGCUGUAUAUCUC | 0.37
UAACAGGGGGCCACAGCAGAAGCGUUCAAGUCGCAGCCCCUGUCAGAUUCUGGUGAAUCUGCGUAUUCUGCUGUAUAUCUC | 0.27
UAACAGGGGGCCACAGCAGAAGCGUUCAAGUCGCAGCCCCUGUCAGAUUCUGGCGAAUCUGCGAAUUCUGCUGUAUAUCUC | 0.45
UAACAGGGGGCCACAGCAGAAGCGUUCAAGUCGCAGCCCCUGUCAGAUUCUGUUGAAUCUGCGAAUUCUGCUGUAUAUCUC | 0.42
UAACAGGGGGCCACAGCAGAAGCGUUCUCGUCGCAGCCCCUGUCAGAUUCUGGUGAAUCUGCGAAUGCUGCUGUAUAUCUC | 0.2
UAACAGGGGGCCACAGCAGAAGCGUUCUCGUCGCAGCCCCUGUCAGAUUCUGGUGAAUCUGCGAAUCCUGCUGUAUAUCUC | 0.27
UAACAGGGGGCCACAGCAGAAGCGUUCUCGUCGCAGCCCCUGUCAGAUUCUGGUGAAUCUGCGAAUACUGCUGUAUAUCUC | 0.3
UAACAGGGGGCCACAGCAGAAGCGUUCAAGUCGCAGCCCCUGUCAGAUCCUGGUGAAUCUGCGAAUUCUGCUGUAUAUCUC | 0.29
UAACAGGGGGCCACAGCAGAAGCGUUCAAGUCGCAGCCCCUGUCAGAUACUGGUGAAUCUGCGAAUUCUGCUGUAUAUCUC | 0.45
UAACAGGGGGCCACAGCAGAAGCGUUCAAGUCGCAGCCCCUGUCAGAUGCUGGUGAAUCUGCGAAUUCUGCUGUAUAUCUC | 0.22

Variant | self-cleavage
UAACAGGGGGCCACAGCAGAAGCGUUCAAGUCGCAGCCCCUGUCAGAUUCUGGUGAACCUGCGAAUUCUGCUGUAUAUCUC | 0.29
UAACAGGGGGCCACAGCAGAAGCGUUCUCGUCGCAGCCCCUGUCAGAUUCUGGUGAAUCUGCGAAAUCUGCUGUAUAUCUC | 0.31
UAACAGGGGGCCACAGCAGAAGCGUUCUCGUCGCAGCCCCUGUCAGAUUCUGGUGAAUCUGCGAACUCUGCUGUAUAUCUC | 0.37
UAACAGGGGGCCACAGCAGAAGCGUUCUCGUCGCAGCCCCUGUCAGAUUCUGGUGAAUCUGCGAAGUCUGCUGUAUAUCUC | 0.69
UAACAGGGGGCCACAGCAGAAGCGUUCAAGUCGCAGCCCAUGUCAGAUUCUGGUGAAUCUGCGAAUUCUGCUGUAUAUCUC | 0.17
UAACAGGGGGCCACAGCAGAAGCGUUCUCGUCGCAGCCCCUGUCAGAUUCUGGUGAAUCUGCGAAUUCUGCUGUAUAUCCC | 0.97
UAACAGGGGGCCACAGCAGAAGCGUUCUCGUCGCAGCCCCUGUCAGAUUCUGGUGAAUCUGCGAAUUCUGCUGUAUAUCAC | 0.71
UAACAGGGGGCCACAGCAGAAGCGUUCAAGCCGCAGCCCCUGUCAGAUUCUGGUGAAUCUGCGAAUUCUGCUGUAUAUCUC | 0.3
UAACAGGGGGCCACAGCAGAAGCGUUCAAGACGCAGCCCCUGUCAGAUUCUGGUGAAUCUGCGAAUUCUGCUGUAUAUCUC | 0.3
UAACAGGGGGCCACAGCAGAAGCGUUCUCGUCGCAGCCCCUGUCAGAUUCUGGUGAAUCUGCGAAUUCAGCUGUAUAUCUC | 0.37
UAACAGGGGGCCACAGCAGAAGCGUUCUCGUCGCAGCCCCUGUCAGAUUCUGGUGAAUCUGCGAAUUCGGCUGUAUAUCUC | 0.42
UAACAGGGGGCCACAGCAGAAGCGUUCUCGUCGCAGCCCCUGUCAGAUUCUGGUGAAUCUGCGAAUUCCGCUGUAUAUCUC | 0.33
UAACAGGGGGCCACAGCAGAAGCGUUCUCGUCGCAGCCCCUGUCAGAUUCUGGUGAAUCGGCGAAUUCUGCUGUAUAUCUC | 0.16
UAACAGGGGGCCACAGCAGAAGCGUUCUCGUCGCAGCCCCUGUCAGAUUCUGGUGAAUCAGCGAAUUCUGCUGUAUAUCUC | 0.26
UAACAGGGGGCCACAGCAGAAGCGUUCUCGUCGCAGCCCCUGUCAGAUUCUGGUGAAUCCGCGAAUUCUGCUGUAUAUCUC | 0.38
UAACAGGGGGCCACAGCAGAAGCGUUCAAGUCGCAGCCCCUGUCAGAUUCUGGUGAAUCUGCGAAUUCUGCUGUAUAUCUC | 0.44
UAACAGGGGGCCACAGCAGAAGCGUUCAAGUCGCAGCCCCUGUCGGAUUCUGGUGAAUCUGCGAAUUCUGCUGUAUAUCUC | 0.46
